The target of test [1] is T1, PD-L1 expressed on RKO cells (human, UniProt Q9NZQ7 19-290).
T1 construct: whole, on cells; RKO cells carry both PD-L1 and B7-H3; also called PD-L1 expressed on cell surface
Kind of test: FACS on RKO cells (express both B7-H3 and PD-L1), FITC anti-human IgG; the signal is not split between the two targets.

The target in test [2] is T2, human B7-H3 expressed on the surface of human cancer cell lines (human, UniProt Q5ZPR3 29-534).
T2 construct: whole, on cells; also called cell surface expression B7-H3
T2 sequence (looked up): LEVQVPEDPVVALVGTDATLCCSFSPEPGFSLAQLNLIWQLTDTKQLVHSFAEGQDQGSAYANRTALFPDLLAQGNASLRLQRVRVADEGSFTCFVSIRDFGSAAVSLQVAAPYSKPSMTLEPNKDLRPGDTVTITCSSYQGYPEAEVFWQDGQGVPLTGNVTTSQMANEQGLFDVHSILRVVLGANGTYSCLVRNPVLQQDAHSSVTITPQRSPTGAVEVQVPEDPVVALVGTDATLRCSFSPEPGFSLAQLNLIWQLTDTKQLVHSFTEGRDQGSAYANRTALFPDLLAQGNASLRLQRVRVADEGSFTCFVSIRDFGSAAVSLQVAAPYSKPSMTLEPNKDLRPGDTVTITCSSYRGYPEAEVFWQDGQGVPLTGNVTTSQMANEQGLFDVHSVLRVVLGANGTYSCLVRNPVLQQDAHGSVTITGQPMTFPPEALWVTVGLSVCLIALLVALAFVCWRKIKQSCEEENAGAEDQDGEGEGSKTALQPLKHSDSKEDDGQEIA
The test is described as above.

The target in test [3] is T1, PD-L1 expressed on RKO cells. In words: FACS on RKO cells. The protocol: (§1) To evaluate the antigen binding property, 1+1 format bispecific antibodies were analyzed for its binding to mammalian expressed both B7-H3 and PD-L1 by FACS as compared to monospecific antibodies. Briefly, RKO cells (human colon carcinoma cell line) were incubated with antibodies. After wash by FACS buffer (1% BSA in PBS), the FITC-anti-human IgG antibody was added to each well and incubated at 4° C. for 1 hour. The MFI of FITC was evaluated by FACS Caliber. The results are described in FIG. 18.

Test [4] has as its target T2, human B7-H3 expressed on the surface of …. In words: FACS on RKO cells. The protocol:
as §1

In test [5] the target is PD-L1 (Biacore, Example 1.6) (UniProt Q9NZQ7 19-238, limits assumed). In words: Biacore. In general terms: SPR reads the build-up and loss of mass on a sensor chip optically.
Chain of PD-L1 (Biacore, Example 1.6) (Q9NZQ7 19-238 limits assumed): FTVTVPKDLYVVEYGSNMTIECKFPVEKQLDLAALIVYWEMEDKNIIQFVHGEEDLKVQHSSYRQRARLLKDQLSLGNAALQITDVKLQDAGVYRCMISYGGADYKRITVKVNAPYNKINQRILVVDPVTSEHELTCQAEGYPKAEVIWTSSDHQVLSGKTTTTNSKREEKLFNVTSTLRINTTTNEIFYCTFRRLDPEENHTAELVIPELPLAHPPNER
For test [6], the target named is T1, PD-L1 expressed on RKO cells. In words: FACS on RKO cells (express both B7-H3 and PD-L1), FITC anti-human IgG.
Test [7] shares this target. The description is as above. This is another data set of the same source.

T1 sequence (Q9NZQ7 19-290): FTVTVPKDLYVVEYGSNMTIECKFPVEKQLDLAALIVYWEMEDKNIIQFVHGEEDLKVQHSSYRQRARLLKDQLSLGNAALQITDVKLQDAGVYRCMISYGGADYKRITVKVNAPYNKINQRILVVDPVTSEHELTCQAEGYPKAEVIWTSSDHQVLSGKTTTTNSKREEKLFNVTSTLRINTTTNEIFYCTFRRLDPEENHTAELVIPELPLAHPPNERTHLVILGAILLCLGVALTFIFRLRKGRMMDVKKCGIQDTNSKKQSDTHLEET

B1: B6xC4I(2+2) (bispecific antibody, human IgG1, kappa, N297A)
chain 1: not shown
chain 2: DIQMTQSPSSLSASVGDRVTITCKASQDVTPAVAWYQQKPGKAPKLLIYSTSSRYTGVPSRFSGSGSGTDFTFTISSLQPEDIATYYCQQHYTTPLTFGQGTKLEIKRTVAAPSVFIFPPSDEQLKSGTASVVCLLNNFYPREAKVQWKVDNALQSGNSQESVTEQDSKDSTYSLSSTLTLSKADYEKHKVYACEVTHQGLSSPVTKSFNRGEC
notes: not the 1+1 format B6xC4I; also called ABLPNB.04; B6xC4I (2+2 format)
As usually defined, the EC50 (read off the curve) is the concentration that produces a half-maximal response. Read a high EC50 (read off the curve) as lower potency in that assay. In the case of B1, the “EC50 (read off the curve)” value in test [1] and in test [2] was ~1 nM throughout.

B2: B6xB5(2+2) (bispecific antibody, human IgG1, kappa, N297A)
chain 1: not shown
chain 2: DIQMTQSPSSLSASVGDRVTITCKASQDVTPAVAWYQQKPGKAPKLLIYSTSSRYTGVPSRFSGSGSGTDFTFTISSLQPEDIATYYCQQHYTTPLTFGQGTKLEIKRTVAAPSVFIFPPSDEQLKSGTASVVCLLNNFYPREAKVQWKVDNALQSGNSQESVTEQDSKDSTYSLSSTLTLSKADYEKHKVYACEVTHQGLSSPVTKSFNRGEC
notes: also called ABLPNB.03; B6xB5 (2+2 format)
As for B2, the “EC50 (read off the curve)” value in test [1] and in test [2] was ~1 nM in each case.

B3: ABLPNB.09: bispecific antibody comprising the anti-PD-L1 B6 clone in (HC + LC) form and the anti-B7-H3 C4I clone in scFab-Fc form (bispecific antibody, human IgG1, kappa, lambda)
heavy: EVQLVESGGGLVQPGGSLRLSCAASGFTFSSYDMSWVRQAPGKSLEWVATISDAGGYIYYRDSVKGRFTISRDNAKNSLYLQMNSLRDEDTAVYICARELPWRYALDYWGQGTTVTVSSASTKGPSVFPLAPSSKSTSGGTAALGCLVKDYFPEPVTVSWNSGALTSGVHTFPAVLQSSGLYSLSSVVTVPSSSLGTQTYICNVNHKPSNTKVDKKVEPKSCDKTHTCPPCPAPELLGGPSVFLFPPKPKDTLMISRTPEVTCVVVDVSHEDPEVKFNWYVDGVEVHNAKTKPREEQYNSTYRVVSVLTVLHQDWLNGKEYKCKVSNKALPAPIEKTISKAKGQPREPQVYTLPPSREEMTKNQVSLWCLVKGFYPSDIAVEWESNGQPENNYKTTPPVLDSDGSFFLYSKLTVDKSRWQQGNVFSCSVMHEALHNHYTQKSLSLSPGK
light: DIQMTQSPSSLSASVGDRVTITCKASQDVTPAVAWYQQKPGKAPKLLIYSTSSRYTGVPSRFSGSGSGTDFTFTISSLQPEDIATYYCQQHYTTPLTFGQGTKLEIKRTVAAPSVFIFPPSDEQLKSGTASVVCLLNNFYPREAKVQWKVDNALQSGNSQESVTEQDSKDSTYSLSSTLTLSKADYEKHKVYACEVTHQGLSSPVTKSFNRGEC
chain: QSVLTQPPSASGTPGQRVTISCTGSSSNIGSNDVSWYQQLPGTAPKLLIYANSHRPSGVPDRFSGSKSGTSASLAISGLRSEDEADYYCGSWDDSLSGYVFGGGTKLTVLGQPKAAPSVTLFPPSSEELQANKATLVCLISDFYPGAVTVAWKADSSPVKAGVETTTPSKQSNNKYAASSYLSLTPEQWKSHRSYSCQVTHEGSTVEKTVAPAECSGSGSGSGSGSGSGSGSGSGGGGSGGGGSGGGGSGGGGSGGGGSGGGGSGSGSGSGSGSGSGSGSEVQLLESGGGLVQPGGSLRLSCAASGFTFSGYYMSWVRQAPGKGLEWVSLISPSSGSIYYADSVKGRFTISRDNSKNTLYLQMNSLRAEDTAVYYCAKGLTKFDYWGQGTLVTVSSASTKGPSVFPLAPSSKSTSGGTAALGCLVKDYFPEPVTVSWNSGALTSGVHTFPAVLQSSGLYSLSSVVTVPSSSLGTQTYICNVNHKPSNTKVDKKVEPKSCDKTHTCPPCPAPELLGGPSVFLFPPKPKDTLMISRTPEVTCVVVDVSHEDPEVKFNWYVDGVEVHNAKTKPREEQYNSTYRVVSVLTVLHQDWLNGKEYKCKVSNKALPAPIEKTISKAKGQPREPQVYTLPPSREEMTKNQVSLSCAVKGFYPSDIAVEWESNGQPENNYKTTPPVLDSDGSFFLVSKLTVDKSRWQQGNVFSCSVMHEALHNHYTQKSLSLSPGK
notes: Human IgG1, knobs-into-hole; also called B6xC4I (1+1 format)
With B3, the binding result in test [3] and in test [4] was “binds” throughout.

B4: H12 (antibody, V domains shown)
VH: EVQLVESGGGLVQPGGSLRLSCAASGFTFSSYDMSWVRQAPGKSLEWVATISDAGGYIYYSDSVKGRFTISRDNAKNSLYLQMNSLRDEDTAVYICAREFGKRYALDYWGQGTTVTVSS
VL: DIQMTQSPSSLSASVGDRVTITCKASQDVTPAVAWYQQKPGKAPKLLIYSTSSRYTGVPSRFSGSGSGTDFTFTISSLQPEDIATYYCQQHYTTPLTFGQGTKLEIK
notes: Humanized anti-PD-L1 antibody; also called WT (H12); WT
What is called Kd is the concentration at which binding is half-saturated. Lower therefore signals higher affinity. What is called koff is the first-order rate constant of dissociation. Read a low koff as a long-lived complex. What is called kon is the second-order rate constant of association. Read a low kon as slower complex formation. In test [5], B4 displayed a Kd of 6.12 nM, a koff of 0.000436 s⁻¹ and a kon of 71200 M⁻¹ s⁻¹.

B5: B6 (anti-PD-L1) (antibody, V domains shown)
VH: EVQLVESGGGLVQPGGSLRLSCAASGFTFSSYDMSWVRQAPGKSLEWVATISDAGGYIYYRDSVKGRFTISRDNAKNSLYLQMNSLRDEDTAVYICARELPWRYALDYWGQGTTVTVSS
VL: DIQMTQSPSSLSASVGDRVTITCKASQDVTPAVAWYQQKPGKAPKLLIYSTSSRYTGVPSRFSGSGSGTDFTFTISSLQPEDIATYYCQQHYTTPLTFGQGTKLEIK
notes: Engineered anti-PD-L1 clone
In the case of B5, the “EC50 (read off the curve)” value in test [6] is ~0.2 nM. The “EC50 (read off the curve)” value in test [7] is ~1 nM. In test [5], this molecule gave a Kd of 4.25 nM, a koff of 0.000418 s⁻¹ and a kon of 98300 M⁻¹ s⁻¹.

Values taken from patent publication US20230192861A1 (ABL BIO, published 2023).
